{
  "source": "paper PMC6231261",
  "about": "“Enhanced triacylglycerol production in the diatom Phaeodactylum tricornutum by inactivation of a Hotdog-fold thioesterase gene using TALEN-based targeted mutagenesis” (Biotechnology for Biofuels, 2018)",
  "proteins": {"B1": {"name": "ptTES1 (Phaeodactylum tricornutum CCAP 1055/1) (protein)", "chain": "MGLIHTPRTIVSIAKGLWKRRQGTVDWPGLGPDKPYVYNARLGLFDVDYLGHLNNAAYLSHAELARWELTAANGMLTSMLQSGTNFIVSGSCIRYRQEIRPVFRKFQVDTYVAGLDQRTIWMVQNFRYPGQNERIRAQMIVQGVAVQKTKGIIDPRSFFVDTVGMPSDLIESVNLPITSDDTVEDVLERYSFLEKALRRAATVDDELQKKEANKE", "notes": "codon-optimized synthetic gene in pET28a, His6-tagged, E. coli Rosetta (DE3), Ni-NTA purified, about 25 kDa on SDS-PAGE; tag removal not mentioned"}},
  "experiment_in_all_cases": "DTNB spectrophotometric CoA release (A412)",
  "assay_type_in_all_cases": "biochemical, Phaeodactylum tricornutum",
  "key": {"[1]": {"substrate": "CC(C)(COP(=O)(O)OP(=O)(O)OC[C@H]1O[C@@H](n2cnc3c(N)ncnc32)[C@H](O)[C@@H]1OP(=O)(O)O)[C@@H](O)C(=O)NCCC(=O)NCCSC(=O)CC(=O)O", "details": "10 mM HEPES pH 7.5, 50 mM KCl, 0.3 mM DTNB, room temperature in methods (37 °C in Fig. 1 legend)", "text": "(§1) DTNB spectrophotometric CoA release (A412) on ptTES1"}, "[2]": {"substrate": "CC/C=C\\C/C=C\\C/C=C\\C/C=C\\C/C=C\\CCCC(=O)SCCNC(=O)CCNC(=O)[C@H](O)C(C)(C)COP(=O)(O)OP(=O)(O)OC[C@H]1O[C@@H](n2cnc3c(N)ncnc32)[C@H](O)[C@@H]1OP(=O)(O)O", "details": "10 mM HEPES pH 7.5, 50 mM KCl, 0.3 mM DTNB, room temperature in methods (37 °C in Fig. 1 legend)", "text": "as §1"}, "[3]": {"substrate": "CCCCCCCC/C=C\\CCCCCCCC(=O)SCCNC(=O)CCNC(=O)[C@H](O)C(C)(C)COP(=O)(O)OP(=O)(O)OC[C@H]1O[C@@H](n2cnc3c(N)ncnc32)[C@H](O)[C@@H]1OP(=O)(O)O", "details": "10 mM HEPES pH 7.5, 50 mM KCl, 0.3 mM DTNB, room temperature in methods (37 °C in Fig. 1 legend), substrate inhibition above 60 μM", "text": "as §1"}, "[4]": {"substrate": "CCCCCCCCCC(=O)SCCNC(=O)CCNC(=O)[C@H](O)C(C)(C)COP(=O)(O)OP(=O)(O)OC[C@H]1O[C@@H](n2cnc3c(N)ncnc32)[C@H](O)[C@@H]1OP(=O)(O)O", "details": "10 mM HEPES pH 7.5, 50 mM KCl, 0.3 mM DTNB, room temperature in methods (37 °C in Fig. 1 legend)", "text": "as §1"}, "[5]": {"substrate": "CCCCCCCCCCCCCC(=O)SCCNC(=O)CCNC(=O)[C@H](O)C(C)(C)COP(=O)(O)OP(=O)(O)OC[C@H]1O[C@@H](n2cnc3c(N)ncnc32)[C@H](O)[C@@H]1OP(=O)(O)O", "details": "10 mM HEPES pH 7.5, 50 mM KCl, 0.3 mM DTNB, room temperature in methods (37 °C in Fig. 1 legend)", "text": "as §1"}, "[6]": {"substrate": "CCCCCCCCCCCCCCCC(=O)SCCNC(=O)CCNC(=O)[C@H](O)C(C)(C)COP(=O)(O)OP(=O)(O)OC[C@H]1O[C@@H](n2cnc3c(N)ncnc32)[C@H](O)[C@@H]1OP(=O)(O)O", "details": "10 mM HEPES pH 7.5, 50 mM KCl, 0.3 mM DTNB, room temperature in methods (37 °C in Fig. 1 legend), substrate inhibition above 60 μM", "text": "as §1"}, "[7]": {"substrate": "CCCCCCCCCCCCCCCCCC(=O)SCCNC(=O)CCNC(=O)[C@H](O)C(C)(C)COP(=O)(O)OP(=O)(O)OC[C@H]1O[C@@H](n2cnc3c(N)ncnc32)[C@H](O)[C@@H]1OP(=O)(O)O", "details": "10 mM HEPES pH 7.5, 50 mM KCl, 0.3 mM DTNB, room temperature in methods (37 °C in Fig. 1 legend)", "text": "as §1"}},
  "data": [
    {"protein": "B1", "values": [
      {"measurement": "Km", "setting": "[1]", "value": 14.64, "unit": "µM"},
      {"measurement": "Vmax", "setting": "[1]", "value": 0.00205, "unit": "µmol/min/mg"},
      {"measurement": "kcat", "setting": "[1]", "value": 0.0009, "unit": "s⁻¹"},
      {"measurement": "kcat/Km", "setting": "[1]", "value": 60.7, "unit": "M⁻¹ s⁻¹"},
      {"measurement": "Km", "setting": "[2]", "value": 38.61, "unit": "µM"},
      {"measurement": "Vmax", "setting": "[2]", "value": 0.0164, "unit": "µmol/min/mg"},
      {"measurement": "kcat", "setting": "[2]", "value": 0.0071, "unit": "s⁻¹"},
      {"measurement": "kcat/Km", "setting": "[2]", "value": 184, "unit": "M⁻¹ s⁻¹"},
      {"measurement": "Km", "setting": "[3]", "value": 12.37, "unit": "µM"},
      {"measurement": "Vmax", "setting": "[3]", "value": 0.0508, "unit": "µmol/min/mg"},
      {"measurement": "kcat", "setting": "[3]", "value": 0.022, "unit": "s⁻¹"},
      {"measurement": "kcat/Km", "setting": "[3]", "value": 1780, "unit": "M⁻¹ s⁻¹"},
      {"measurement": "Km", "setting": "[4]", "value": 91.76, "unit": "µM"},
      {"measurement": "Vmax", "setting": "[4]", "value": 0.0228, "unit": "µmol/min/mg"},
      {"measurement": "kcat", "setting": "[4]", "value": 0.0099, "unit": "s⁻¹"},
      {"measurement": "kcat/Km", "setting": "[4]", "value": 108, "unit": "M⁻¹ s⁻¹"},
      {"measurement": "Km", "setting": "[5]", "value": 21.79, "unit": "µM"},
      {"measurement": "Vmax", "setting": "[5]", "value": 0.0302, "unit": "µmol/min/mg"},
      {"measurement": "kcat", "setting": "[5]", "value": 0.0131, "unit": "s⁻¹"},
      {"measurement": "kcat/Km", "setting": "[5]", "value": 602, "unit": "M⁻¹ s⁻¹"},
      {"measurement": "Km", "setting": "[6]", "value": 14.76, "unit": "µM"},
      {"measurement": "Vmax", "setting": "[6]", "value": 0.0453, "unit": "µmol/min/mg"},
      {"measurement": "kcat", "setting": "[6]", "value": 0.0196, "unit": "s⁻¹"},
      {"measurement": "kcat/Km", "setting": "[6]", "value": 1330, "unit": "M⁻¹ s⁻¹"},
      {"measurement": "Km", "setting": "[7]", "value": 8.246, "unit": "µM"},
      {"measurement": "Vmax", "setting": "[7]", "value": 0.0451, "unit": "µmol/min/mg"},
      {"measurement": "kcat", "setting": "[7]", "value": 0.0196, "unit": "s⁻¹"},
      {"measurement": "kcat/Km", "setting": "[7]", "value": 2370, "unit": "M⁻¹ s⁻¹"}
    ]}
  ]
}
